Source: IntAct's records for PubMed 23169619

B1: Protein TIFY 7 (Arabidopsis thaliana (Mouse-ear cress)), Q8W4J8 (parent)
chain: MERDFLGLSDKQYLSNNVKHEVNDDAVEERGLSTKAAREWGKSKVFATSSFMPSSDFQEAKAFPGAYQWGSVSAANVFRRCQFGGAFQNATPLLLGGSVPLPTHPSLVPRVASSGSSPQLTIFYGGTISVFNDISPDKAQAIMLCAGNGLKGETGDSKPVREAERMYGKQIHNTAATSSSSATHTDNFSRCRDTPVAATNAMSMIESFNAAPRNMIPSVPQARKASLARFLEKRKERLMSAMPYKKMLLDLSTGESSGMNYSSTSPT
partner: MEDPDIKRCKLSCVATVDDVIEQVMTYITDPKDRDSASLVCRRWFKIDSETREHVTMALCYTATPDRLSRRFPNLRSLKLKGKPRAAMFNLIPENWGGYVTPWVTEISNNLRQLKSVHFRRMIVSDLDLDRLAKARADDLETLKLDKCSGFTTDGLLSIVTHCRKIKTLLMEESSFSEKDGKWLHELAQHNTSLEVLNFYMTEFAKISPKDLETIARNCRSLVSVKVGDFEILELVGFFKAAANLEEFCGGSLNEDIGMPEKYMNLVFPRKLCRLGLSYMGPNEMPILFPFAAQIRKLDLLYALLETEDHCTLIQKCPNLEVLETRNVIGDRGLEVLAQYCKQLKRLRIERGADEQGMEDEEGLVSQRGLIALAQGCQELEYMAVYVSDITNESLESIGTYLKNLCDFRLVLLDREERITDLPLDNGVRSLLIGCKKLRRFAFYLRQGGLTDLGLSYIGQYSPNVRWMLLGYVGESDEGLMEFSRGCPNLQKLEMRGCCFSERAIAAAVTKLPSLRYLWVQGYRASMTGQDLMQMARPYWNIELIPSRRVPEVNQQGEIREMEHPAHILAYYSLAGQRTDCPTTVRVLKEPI
B2: Protein TIFY 7 (Arabidopsis thaliana (Mouse-ear cress)), Q8W4J8 (parent)
chain: B1 chain

Variants of: B1
Details: with coi1_arath COI1, O04197

Row | Variant | effect of a mutation on the interaction
1 | R223A;K224A | disrupting interaction strength
2 | K233A;R234A | disrupting interaction strength

Other lines, results leading:

Row | effect of a mutation on the interaction | Variant
3 | disrupting interaction strength | K233A;R234A;K235A
4 | disrupting interaction strength | R234A

Variants of: B2
Details: with myc2_arath MYC2, Q39204
Chain of myc2_arath MYC2, Q39204 (Q39204 whole entry): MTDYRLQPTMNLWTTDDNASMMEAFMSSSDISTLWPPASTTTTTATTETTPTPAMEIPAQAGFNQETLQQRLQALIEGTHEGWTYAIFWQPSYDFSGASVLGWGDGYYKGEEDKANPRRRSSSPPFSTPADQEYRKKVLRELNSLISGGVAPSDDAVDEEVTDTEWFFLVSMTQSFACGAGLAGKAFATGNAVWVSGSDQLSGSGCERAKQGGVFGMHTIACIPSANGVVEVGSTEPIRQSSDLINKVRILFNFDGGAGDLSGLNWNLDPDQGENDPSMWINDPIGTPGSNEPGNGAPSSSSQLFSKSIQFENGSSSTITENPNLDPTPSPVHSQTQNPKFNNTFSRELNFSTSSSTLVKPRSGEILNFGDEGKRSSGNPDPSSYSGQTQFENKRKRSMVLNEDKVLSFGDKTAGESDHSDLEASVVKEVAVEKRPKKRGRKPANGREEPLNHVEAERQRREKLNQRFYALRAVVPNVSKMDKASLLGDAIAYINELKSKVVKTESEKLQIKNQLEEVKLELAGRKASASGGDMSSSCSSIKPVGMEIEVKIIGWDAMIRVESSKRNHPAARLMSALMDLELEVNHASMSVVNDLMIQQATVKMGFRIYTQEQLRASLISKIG

Row | effect of a mutation on the interaction | Variant
5 | disrupting interaction strength | K233A;R234A;K235A
6 | disrupting interaction strength | K233A;R234A
7 | disrupting interaction strength | R234A
